Publication PMC3655159

Legend:
[1] = target: HSV-1 gB ectodomain gB730 (residues 31-730) (HSV-1 (strain KOS)) (UniProt P06437); assay: SDS-PAGE under mildly denaturing conditions
[2] = target: HSV-1 gB ectodomain gB730 (residues 31-730) (HSV-1 (strain KOS)) (UniProt P06437); assay: SDS-PAGE under mildly denaturing conditions + Western blot

With “HSV-1 gB ectodomain gB730 (residues 31-730) (from UniProt P06437 31-730) (domain or fragment)” the stoichiometry N [1] was 3 and the stoichiometry N [2] was 3.
